The results in this text go back to patent US20040005688A1.

Test [1] addresses Dvl3, mouse homolog of Dsh, C-terminally tagged, expressed from pcDNA3.1 in NIH3T3 cells (mouse) (UniProt Q61062). Nature of the test: cell-based or functional assay.
In test [2] the target is Dsh, C-terminally tagged, expressed from pcDNA3.1 in NIH3T3 cells (Drosophila) (UniProt P51140). Nature of the test: cell-based or functional assay.
Dsh, C-terminally tagged, expressed from pcDNA3.1 in NIH3T3 cells (Drosophila), sequence (P51140 whole entry D276N): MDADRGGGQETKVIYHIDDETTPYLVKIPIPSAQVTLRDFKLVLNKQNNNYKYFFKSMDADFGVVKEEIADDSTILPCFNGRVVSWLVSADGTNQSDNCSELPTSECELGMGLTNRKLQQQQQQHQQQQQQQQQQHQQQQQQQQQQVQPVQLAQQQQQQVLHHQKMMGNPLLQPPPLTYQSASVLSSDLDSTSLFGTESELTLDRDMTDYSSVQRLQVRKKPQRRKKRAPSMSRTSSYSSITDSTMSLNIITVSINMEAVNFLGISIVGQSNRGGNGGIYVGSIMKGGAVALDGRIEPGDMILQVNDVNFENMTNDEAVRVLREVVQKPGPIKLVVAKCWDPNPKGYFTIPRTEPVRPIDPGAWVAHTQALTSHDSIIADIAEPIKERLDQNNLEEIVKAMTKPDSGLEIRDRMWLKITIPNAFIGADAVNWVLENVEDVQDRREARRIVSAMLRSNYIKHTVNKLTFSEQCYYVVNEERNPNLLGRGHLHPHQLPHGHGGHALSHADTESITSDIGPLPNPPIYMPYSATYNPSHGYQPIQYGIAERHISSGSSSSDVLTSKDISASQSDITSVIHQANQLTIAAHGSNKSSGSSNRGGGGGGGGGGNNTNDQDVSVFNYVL

Dvl3, mouse homolog of Dsh, C-terminally tagged, expressed from pcDNA3.1 in NIH3T3 cells (mouse), sequence (Q61062 whole entry): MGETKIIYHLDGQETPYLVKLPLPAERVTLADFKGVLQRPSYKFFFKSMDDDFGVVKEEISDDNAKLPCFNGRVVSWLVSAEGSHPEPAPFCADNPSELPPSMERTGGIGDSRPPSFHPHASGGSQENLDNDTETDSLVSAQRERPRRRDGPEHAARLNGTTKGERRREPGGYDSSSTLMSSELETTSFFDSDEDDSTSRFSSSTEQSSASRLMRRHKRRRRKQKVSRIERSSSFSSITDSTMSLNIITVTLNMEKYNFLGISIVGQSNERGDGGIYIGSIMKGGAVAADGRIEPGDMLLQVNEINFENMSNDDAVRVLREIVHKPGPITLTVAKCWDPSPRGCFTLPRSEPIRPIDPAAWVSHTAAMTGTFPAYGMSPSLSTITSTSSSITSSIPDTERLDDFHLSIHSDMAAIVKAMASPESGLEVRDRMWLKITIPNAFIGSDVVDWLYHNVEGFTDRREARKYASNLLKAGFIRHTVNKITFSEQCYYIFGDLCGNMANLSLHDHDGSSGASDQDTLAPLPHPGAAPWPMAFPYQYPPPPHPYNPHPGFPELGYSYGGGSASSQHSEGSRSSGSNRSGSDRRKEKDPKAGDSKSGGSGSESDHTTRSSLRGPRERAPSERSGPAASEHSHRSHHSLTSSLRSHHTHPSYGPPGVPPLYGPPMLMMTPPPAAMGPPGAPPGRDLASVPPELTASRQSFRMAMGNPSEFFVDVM

As to “DAKa, wild type, C-terminally tagged, expressed from pcDNA3.1 in NIH3T3 cells (enzyme)”, the activation of the LEF1 reporter (luciferase, NIH3T3 cells) in test [1] is 95 fold; in test [2], 10 fold.
